Here are results for one molecule from patent US20240270821A1, “GIP/GLP1/GCG TRI-RECEPTOR AGONISTS AND USES THEREOF” (priority 2023, published 2024).

What all share (test): cell-based or functional assay
One experiment concerns the target hGLP-1R (Homo sapiens, UniProt P43220).
In experiment [1] the target is T1, human GIP receptor (hGIPR) (human) (UniProt P48546).
T1 sequence (looked up): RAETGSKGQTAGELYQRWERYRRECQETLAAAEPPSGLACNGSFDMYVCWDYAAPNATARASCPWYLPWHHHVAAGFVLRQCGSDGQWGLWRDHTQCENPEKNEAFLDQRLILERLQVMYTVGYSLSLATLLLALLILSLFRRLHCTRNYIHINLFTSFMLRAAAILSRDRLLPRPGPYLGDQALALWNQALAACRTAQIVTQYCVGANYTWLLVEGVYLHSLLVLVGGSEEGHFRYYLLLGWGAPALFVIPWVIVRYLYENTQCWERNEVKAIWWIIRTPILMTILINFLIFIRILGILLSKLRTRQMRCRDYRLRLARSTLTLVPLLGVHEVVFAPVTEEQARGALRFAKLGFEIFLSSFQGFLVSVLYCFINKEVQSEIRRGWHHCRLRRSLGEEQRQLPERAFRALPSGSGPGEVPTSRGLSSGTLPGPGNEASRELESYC

For experiment [2], the target named is T2, human GIP receptor (human) (UniProt P48546).
T2 sequence (looked up): T1 sequence (looked up)

Experiment [3] concerns the target human GLP-1 receptor (hGLP-1R) (human) (UniProt P43220).
Experiment [4] addresses human GLP-1R (SNAP-GLP-1R expressed in HEK293 cells) (human) (UniProt P43220).
The target of experiment [5] is human glucagon receptor (hGcgR) (human) (UniProt P47871).
Experiment [6] has as its target human glucagon receptor (human) (UniProt P47871).

Sequence of human GLP-1R (SNAP-GLP-1R expressed in HEK293 cells) (human) (P43220 24-463): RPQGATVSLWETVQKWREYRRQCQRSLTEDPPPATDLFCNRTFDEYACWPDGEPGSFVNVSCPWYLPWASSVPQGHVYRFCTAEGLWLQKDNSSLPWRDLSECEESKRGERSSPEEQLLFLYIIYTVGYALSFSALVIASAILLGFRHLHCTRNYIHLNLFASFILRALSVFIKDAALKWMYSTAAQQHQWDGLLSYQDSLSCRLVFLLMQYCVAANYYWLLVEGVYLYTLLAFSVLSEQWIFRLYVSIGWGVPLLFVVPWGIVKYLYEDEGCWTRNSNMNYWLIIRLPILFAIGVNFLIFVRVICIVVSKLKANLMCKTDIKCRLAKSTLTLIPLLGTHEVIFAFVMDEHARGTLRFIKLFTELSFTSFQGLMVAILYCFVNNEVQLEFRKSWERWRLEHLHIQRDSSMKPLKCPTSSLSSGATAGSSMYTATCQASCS
Sequence of human glucagon receptor (human) (P47871 26-477): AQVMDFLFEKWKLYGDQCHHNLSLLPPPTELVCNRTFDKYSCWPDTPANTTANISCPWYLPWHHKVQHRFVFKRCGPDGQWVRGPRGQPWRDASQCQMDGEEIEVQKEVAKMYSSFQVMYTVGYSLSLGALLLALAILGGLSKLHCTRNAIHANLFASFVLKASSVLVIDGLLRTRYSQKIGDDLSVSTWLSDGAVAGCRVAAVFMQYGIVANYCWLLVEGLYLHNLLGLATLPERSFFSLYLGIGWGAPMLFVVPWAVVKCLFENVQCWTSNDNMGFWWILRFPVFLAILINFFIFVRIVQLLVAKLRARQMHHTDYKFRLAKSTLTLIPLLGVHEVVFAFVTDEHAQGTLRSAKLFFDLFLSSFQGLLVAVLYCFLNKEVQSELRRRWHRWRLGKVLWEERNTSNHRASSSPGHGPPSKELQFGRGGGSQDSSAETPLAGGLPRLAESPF
Sequence of human glucagon receptor (hGcgR) (human) (P47871 26-477): as above
Sequence of human GLP-1 receptor (hGLP-1R) (human) (P43220 24-463): as the sequence (P43220 24-463) above
Sequence of hGLP-1R (P43220 24-463): as above

B1: Example 548 (peptide)
chain: YXQGTXTSDXXILLDXKAQXXFIEYLIEGGPSSGEPPPSGTGE
modifications: synthetic construct; SITE 2: note = 2-Aminoisobutyric Acid; SITE 6: note = alpha-methyl-2-fluoro-L-phenylalanine; SITE 10: note = 3-(4-Pyridyl)-L-alanine; SITE 11: note = alpha-methyl-L-serine; SITE 16: note = L-ornithine; SITE 17: note = Lysine is chemically modified through conjugation of the epsi
On to B1, for which the values for the cAMP Rel EC50, nM (presence of 1% HSA) (with hGLP-1R; in experiment [2]; in experiment [6]) were 38 nM, 3.48 nM and 295 nM, respectively. In addition, the Relative cAMP EC50 was 0.0547 nM in experiment [1], 0.478 nM in experiment [3] and 3.94 nM in experiment [5]. The molecule further displayed a GLP1R Internalization EC50 in experiment [4] of 17.8 nM. This molecule had an Internalization % TOP in experiment [4] of 109%.
